Experimental data as given in publication PMC11446282.

System: B55α interactors
Assay: MS analysis of B55α WT, V228A, I284A, S287A and D340A immunopurifications
Format: binding, human
Conditions: log2 ratio of interactor abundance, 4 replicates each, normalised to bait B55α; for log2_ratio_D340_WT: B55α D340A vs WT immunopurification; for log2_ratio I284_WT: B55α I284A vs WT immunopurification; for log2_ratio S287_WT: B55α S287A vs WT immunopurification; for log2_ratio V228_WT: B55α V228A vs WT immunopurification
Method: Standard cloning techniques were used throughout. Point mutations were introduced by whole plasmid polymerase chain reaction (PCR). All constructs were fully sequenced. Synthetic DNA was purchased from GeneArt, Life Technologies and cloned into pcDNA5/FRT/TO (Invitrogen) expression vector containing YFP, resulting in the indicated YFP fusion proteins. These constructs were transiently transfected into HeLa cells 24 hours before harvesting cells. Cells were lysed in lysis buffer [50 mM tris-HCl (pH 7.5), 50 mM NaCl, 1 mM EDTA, 1 mM […], and 0.1% NP-40]. Complexes were immunoprecipitated at 4°C in lysis buffer with green fluorescent protein (GFP)–Trap (ChromoTek) and washed in lysis buffer. Precipitated protein complexes were washed three times in lysis buffer, eluted in 2× SDS sample buffer, and subjected to Western blotting or MS as indicated.
Pull-downs were analyzed on a Q-Exactive Plus quadrupole or Fusion Orbitrap Lumos mass spectrometer (Thermo Fisher Scientific) equipped with Easy-nLC 1000 or […] (Thermo Fisher Scientific) and nanospray source (Thermo Fisher Scientific).
Static modifications included carbamidomethylcysteine, and variable modifications included oxidized methionine and STY phosphorylation. Searches were filtered using orthogonal measures including mass measurement accuracy (±3 parts per million), Xcorr for charges from +2 to +4, and dCn targeting a <1% false discovery rate at the peptide level. Quantification of LC-MS/MS spectra was performed using MassChroQ ([57]) and the iBAQ method ([58]). All data were analyzed using R 4.3.0. Missing values were imputed from a normal distribution. […] In each dataset, the abundance of the protein of interest was normalized to be equal across all samples. Statistical analyses were done using a two-tailed Student’s t test.

B1: IER2_HUMAN (protein, UniProt Q9BTL4 1-223, looked up)
Immediate early response gene …: MEVQKEAQRIMTLSVWKMYHSRMQRGGLRLHRSLQLSLVMRSARELYLSAKVEALEPEVSLPAALPSDPRLHPPREAESTAETATPDGEHPFPEPMDTQEAPTAEETSACCAPRPAKVSRKRRSSSLSDGGDAGLVPSKKARLEEKEEEEGASSEVADRLQPPPAQAEGAFPNLARVLQRRFSGLLNCSPAAPPTAPPACEAKPACRPADSMLNVLVRAVVAF
  log2_ratio_D340_WT: -8.18
  log2_ratio I284_WT: -0.03
  log2_ratio S287_WT: 0.35
  log2_ratio V228_WT: -2.82

B2: SIK2_HUMAN (protein, UniProt Q9H0K1 1-926, looked up)
Serine/threonine-protein …: MVMADGPRHLQRGPVRVGFYDIEGTLGKGNFAVVKLGRHRITKTEVAIKIIDKSQLDAVNLEKIYREVQIMKMLDHPHIIKLYQVMETKSMLYLVTEYAKNGEIFDYLANHGRLNESEARRKFWQILSAVDYCHGRKIVHRDLKAENLLLDNNMNIKIADFGFGNFFKSGELLATWCGSPPYAAPEVFEGQQYEGPQLDIWSMGVVLYVLVCGALPFDGPTLPILRQRVLEGRFRIPYFMSEDCEHLIRRMLVLDPSKRLTIAQIKEHKWMLIEVPVQRPVLYPQEQENEPSIGEFNEQVLRLMHSLGIDQQKTIESLQNKSYNHFAAIYFLLVERLKSHRSSFPVEQRLDGRQRRPSTIAEQTVAKAQTVGLPVTMHSPNMRLLRSALLPQASNVEAFSFPASGCQAEAAFMEEECVDTPKVNGCLLDPVPPVLVRKGCQSLPSNMMETSIDEGLETEGEAEEDPAHAFEAFQSTRSGQRRHTLSEVTNQLVVMPGAGKIFSMNDSPSLDSVDSEYDMGSVQRDLNFLEDNPSLKDIMLANQPSPRMTSPFISLRPTNPAMQALSSQKREVHNRSPVSFREGRRASDTSLTQGIVAFRQHLQNLARTKGILELNKVQLLYEQIGPEADPNLAPAAPQLQDLASSCPQEEVSQQQESVSTLPASVHPQLSPRQSLETQYLQHRLQKPSLLSKAQNTCQLYCKEPPRSLEQQLQEHRLQQKRLFLQKQSQLQAYFNQMQIAESSYPQPSQQLPLPRQETPPPSQQAPPFSLTQPLSPVLEPSSEQMQYSPFLSQYQEMQLQPLPSTSGPRAAPPLPTQLQQQQPPPPPPPPPPRQPGAAPAPLQFSYQTCELPSAASPAPDYPTPCQYPVDGAQQSDLTGPDCPRSPGLQEAPSSYDPLALSELPGLFDCEMLDAVDPQHNGYVLVN
  log2_ratio_D340_WT: 2.13
  log2_ratio I284_WT: -0.65
  log2_ratio S287_WT: -1.90
  log2_ratio V228_WT: -3.24

B3: AMOL2_HUMAN (protein, UniProt Q9Y2J4 1-779, looked up)
Angiomotin-like protein 2: MRTLEDSSGTVLHRLIQEQLRYGNLTETRTLLAIQQQALRGGAGTGGTGSPQASLEILAPEDSQVLQQATRQEPQGQEHQGGENHLAENTLYRLCPQPSKGEELPTYEEAKAHSQYYAAQQAGTRPHAGDRDPRGAPGGSRRQDEALRELRHGHVRSLSERLLQLSLERNGARAPSHMSSSHSFPQLARNQQGPPLRGPPAEGPESRGPPPQYPHVVLAHETTTAVTDPRYRARGSPHFQHAEVRILQAQVPPVFLQQQQQYQYLQQSQEHPPPPHPAALGHGPLSSLSPPAVEGPVSAQASSATSGSAHLAQMEAVLRENARLQRDNERLQRELESSAEKAGRIEKLESEIQRLSEAHESLTRASSKREALEKTMRNKMDSEMRRLQDFNRDLRERLESANRRLASKTQEAQAGSQDMVAKLLAQSYEQQQEQEKLEREMALLRGAIEDQRRRAELLEQALGNAQGRAARAEEELRKKQAYVEKVERLQQALGQLQAACEKREQLELRLRTRLEQELKALRAQQRQAGAPGGSSGSGGSPELSALRLSEQLREKEEQILALEADMTKWEQKYLEERAMRQFAMDAAATAAAQRDTTLIRHSPQPSPSSSFNEGLLTGGHRHQEMESRLKVLHAQILEKDAVIKVLQQRSRRDPGKAIQGSLRPAKSVPSVFAAAAAGTQGWQGLSSSERQTADAPARLTTDRAPTEEPVVTAPPAAHAKHGSRDGSTQTEGPPDSTSTCLPPEPDSLLGCSSSQRAASLDSVATSRVQDLSDMVEILI
  log2_ratio_D340_WT: 2.17
  log2_ratio I284_WT: 3.49
  log2_ratio S287_WT: 2.56

B4: PPME1_HUMAN (protein, UniProt Q9Y570 2-386, looked up)
Protein phosphatase …: SALEKSMHLGRLPSRPPLPGSGGSQSGAKMRMGPGRKRDFSPVPWSQYFESMEDVEVENETGKDTFRVYKSGSEGPVLLLLHGGGHSALSWAVFTAAIISRVQCRIVALDLRSHGETKVKNPEDLSAETMAKDVGNVVEAMYGDLPPPIMLIGHSMGGAIAVHTASSNLVPSLLGLCMIDVVEGTAMDALNSMQNFLRGRPKTFKSLENAIEWSVKSGQIRNLESARVSMVGQVKQCEGITSPEGSKSIVEGIIEEEEEDEEGSESISKRKKEDDMETKKDHPYTWRIELAKTEKYWDGWFRGLSNLFLSCPIPKLLLLAGVDRLDKDLTIGQMQGKFQMQVLPQCGHAVHEDAPDKVAEAVATFLIRHRFAEPIGGFQCVFPGC
  log2_ratio_D340_WT: -3.73
  log2_ratio I284_WT: -7.04
  log2_ratio S287_WT: -10.17
  log2_ratio V228_WT: -9.33

B5: RBM7_HUMAN (protein, UniProt Q9Y580 2-266, looked up)
RNA-binding protein 7: GAAAAEADRTLFVGNLETKVTEELLFELFHQAGPVIKVKIPKDKDGKPKQFAFVNFKHEVSVPYAMNLLNGIKLYGRPIKIQFRSGSSHAPQDVSLSYPQHHVGNSSPTSTSPSRYERTMDNMTSSAQIIQRSFSSPENFQRQAVMNSALRQMSYGGKFGSSPLDQSGFSPSVQSHSHSFNQSSSSQWRQGTPSSQRKVRMNSYPYLADRHYSREQRYTDHGSDHHYRGKRDDFFYEDRNHDDWSHDYDNRRDSSRDGKWRSSRH
  log2_ratio_D340_WT: -4.64
  log2_ratio I284_WT: -3.46
  log2_ratio S287_WT: 0.85
  log2_ratio V228_WT: -3.26

B6: ACOT8_HUMAN (protein, UniProt O14734 1-319, looked up)
Acyl-coenzyme A thioesterase 8: MSSPQAPEDGQGCGDRGDPPGDLRSVLVTTVLNLEPLDEDLFRGRHYWVPAKRLFGGQIVGQALVAAAKSVSEDVHVHSLHCYFVRAGDPKLPVLYQVERTRTGSSFSVRSVKAVQHGKPIFICQASFQQAQPSPMQHQFSMPTVPPPEELLDCETLIDQYLRDPNLQKRYPLALNRIAAQEVPIEIKPVNPSPLSQLQRMEPKQMFWVRARGYIGEGDMKMHCCVAAYISDYAFLGTALLPHQWQHKVHFMVSLDHSMWFHAPFRADHWMLYECESPWAGGSRGLVHGRLWRQDGVLAVTCAQEGVIRVKPQVSESKL
  log2_ratio_D340_WT: -0.23
  log2_ratio S287_WT: 0.94

B7: TBCD4_HUMAN (protein, UniProt O60343 1-1298, looked up)
TBC1 domain family member 4: MEPPSCIQDEPFPHPLEPEPGVSAQPGPGKPSDKRFRLWYVGGSCLDHRTTLPMLPWLMAEIRRRSQKPEAGGCGAPAAREVILVLSAPFLRCVPAPGAGASGGTSPSATQPNPAVFIFEHKAQHISRFIHNSHDLTYFAYLIKAQPDDPESQMACHVFRATDPSQVPDVISSIRQLSKAAMKEDAKPSKDNEDAFYNSQKFEVLYCGKVTVTHKKAPSSLIDDCMEKFSLHEQQRLKIQGEQRGPDPGEDLADLEVVVPGSPGDCLPEEADGTDTHLGLPAGASQPALTSSRVCFPERILEDSGFDEQQEFRSRCSSVTGVQRRVHEGSQKSQPRRRHASAPSHVQPSDSEKNRTMLFQVGRFEINLISPDTKSVVLEKNFKDISSCSQGIKHVDHFGFICRESPEPGLSQYICYVFQCASESLVDEVMLTLKQAFSTAAALQSAKTQIKLCEACPMHSLHKLCERIEGLYPPRAKLVIQRHLSSLTDNEQADIFERVQKMKPVSDQEENELVILHLRQLCEAKQKTHVHIGEGPSTISNSTIPENATSSGRFKLDILKNKAKRSLTSSLENIFSRGANRMRGRLGSVDSFERSNSLASEKDYSPGDSPPGTPPASPPSSAWQTFPEEDSDSPQFRRRAHTFSHPPSSTKRKLNLQDGRAQGVRSPLLRQSSSEQCSNLSSVRRMYKESNSSSSLPSLHTSFSAPSFTAPSFLKSFYQNSGRLSPQYENEIRQDTASESSDGEGRKRTSSTCSNESLSVGGTSVTPRRISWRQRIFLRVASPMNKSPSAMQQQDGLDRNELLPLSPLSPTMEEEPLVVFLSGEDDPEKIEERKKSKELRSLWRKAIHQQILLLRMEKENQKLEASRDELQSRKVKLDYEEVGACQKEVLITWDKKLLNCRAKIRCDMEDIHTLLKEGVPKSRRGEIWQFLALQYRLRHRLPNKQQPPDISYKELLKQLTAQQHAILVDLGRTFPTHPYFSVQLGPGQLSLFNLLKAYSLLDKEVGYCQGISFVAGVLLLHMSEEQAFEMLKFLMYDLGFRKQYRPDMMSLQIQMYQLSRLLHDYHRDLYNHLEENEISPSLYAAPWFLTLFASQFSLGFVARVFDIIFLQGTEVIFKVALSLLSSQETLIMECESFENIVEFLKNTLPDMNTSEMEKIITQVFEMDISKQLHAYEVEYHVLQDELQESSYSCEDSETLEKLERANSQLKRQNMDLLEKLQVAHTKIQALESNLENLLTRETKMKSLIRTLEQEKMAYQKTVEQLRKLLPADALVNCDLLLRDLNCNPNNKAKIGNKP
  log2_ratio_D340_WT: -3.17
  log2_ratio I284_WT: -2.61
  log2_ratio S287_WT: -1.57
  log2_ratio V228_WT: -1.50
